Values belong to the sequence of their own block, whether it stands above or below them.
Legend:
[1] = biological target: HLA-B*44:02; assay: IEDB peptide-MHC binding, purified MHC/direct/fluorescence; filed as Kd, often an IC50 or EC50 that approximates it; ≥ and ≤ were set here for values at or beyond the usual limits of such assays; conditions: source organism: Giardia lamblia ATCC 50803
[2] = biological target: HLA-B*15:01; assay: as above
[3] = biological target: HLA-A*24:03; assay: as above
[4] = biological target: HLA-B*27:05; assay: as above
[5] = biological target: HLA-B*58:01; assay: as above
[6] = biological target: HLA-A*31:01; assay: as above
[7] = biological target: HLA-A*69:01; assay: as above
[8] = biological target: HLA-A*26:01; assay: as above
[9] = biological target: HLA-A*02:01; assay: as above
[10] = biological target: HLA-A*11:01; assay: as above
[11] = biological target: HLA-B*40:01; assay: as above
[12] = biological target: HLA-B*08:01; assay: as above
[13] = biological target: HLA-B*07:02; assay: as above
[14] = biological target: HLA-A*01:01; assay: as above
[15] = biological target: HLA-A*03:01; assay: as above
[16] = biological target: HLA-B*15:01; assay: IEDB peptide-MHC binding, purified MHC/competitive/fluorescence; ≥ and ≤ were set here for values at or beyond the usual limits of such assays
[17] = biological target: HLA-A*24:02; assay: as above
[18] = biological target: HLA-A*02:03; assay: IEDB peptide-MHC binding, purified MHC/competitive/radioactivity; filed as Kd, often an IC50 or EC50 that approximates it; ≥ and ≤ were set here for values at or beyond the usual limits of such assays
[19] = biological target: HLA-A*02:02; assay: as above
[20] = biological target: HLA-A*02:01; assay: as above
[21] = biological target: HLA-A*68:02; assay: as above
[22] = biological target: HLA-A*26:01; assay: as above; conditions: source organism: Dengue virus 3 Sri Lanka/1266/2000
[23] = biological target: HLA-A*02:06; assay: as above
[24] = biological target: HLA-A*02:01; assay: IEDB peptide-MHC binding, purified MHC/competitive/fluorescence; ≥ and ≤ were set here for values at or beyond the usual limits of such assays
[25] = biological target: HLA-B*51:01; assay: IEDB peptide-MHC binding, purified MHC/competitive/radioactivity; filed as Kd, often an IC50 or EC50 that approximates it; ≥ and ≤ were set here for values at or beyond the usual limits of such assays; conditions: source organism: Dengue virus 3 Martinique/1243/1999
[26] = biological target: HLA-B*07:02; assay: as above
[27] = biological target: HLA-B*57:01; assay: IEDB peptide-MHC binding, purified MHC/direct/fluorescence; filed as Kd, often an IC50 or EC50 that approximates it; ≥ and ≤ were set here for values at or beyond the usual limits of such assays; conditions: source organism: Giardia lamblia ATCC 50803
[28] = biological target: HLA-A*32:01; assay: IEDB peptide-MHC binding, purified MHC/competitive/radioactivity; filed as Kd, often an IC50 or EC50 that approximates it; ≥ and ≤ were set here for values at or beyond the usual limits of such assays; conditions: source organism: Vaccinia virus WR
[29] = biological target: HLA-B*53:01; assay: as above; conditions: source organism: Dengue virus 4 Philippines/H241/1956
[30] = source organism: Giardia lamblia ATCC 50803
[31] = source organism: Vaccinia virus
[32] = source organism: Lassa virus Josiah
[33] = source organism: Pseudomonas aeruginosa UCBPP-PA14
[34] = source organism: Zaire ebolavirus
[35] = source organism: Trypanosoma cruzi
[36] = source organism: Vaccinia virus Copenhagen

Sequence: RPRGHREFC
- Kd [1]: ≥ 20 µM
- Kd [2, 30]: ≥ 20 µM
- Kd [3, 30]: ≥ 20 µM
- Kd [4, 30]: ≥ 20 µM
- Kd [5, 30]: ≥ 20 µM
- Kd [6, 30]: ≥ 20 µM
- Kd [7, 30]: ≥ 20 µM
- Kd [8, 30]: ≥ 20 µM
- Kd [9, 30]: ≥ 20 µM
- Kd [10, 30]: ≥ 20 µM
- Kd [11, 30]: ≥ 20 µM
- Kd [12, 30]: 8.07 µM
- Kd [13, 30]: 0.0984 µM
- Kd [14, 30]: ≥ 20 µM
- Kd [15, 30]: ≥ 20 µM

Sequence: VFAPKQKMF
- IC50 [16, 31]: 14 µM
- IC50 [17, 31]: 0.0261 µM

- Kd ([18]; source organism: Homo sapiens): 0.0163 µM
- Kd ([19]; source organism: Homo sapiens): 4.63 nM
- Kd ([20]; source organism: Homo sapiens): 0.078 µM
- Kd ([21]; source organism: Homo sapiens): 7620 nM
Sequence: QLYKEQLAKL

Sequence: SILRVGTLT
- Kd [20, 32]: ≥ 25 µM

Sequence: ETYQLWTALV
- Kd [22]: 0.0566 µM
- Kd ([21]; source organism: Dengue virus 3 Sri Lanka/1266/2000): 0.07 nM

Sequence: TTATITPQA
- Kd ([21]; source organism: Dengue virus 1 Nauru/West Pac/1974): 1.12 nM

- Kd [2, 33]: ≥ 20 µM
- Kd [3, 33]: ≥ 20 µM
- Kd [4, 33]: ≥ 20 µM
- Kd [5, 33]: ≥ 20 µM
- Kd [6, 33]: ≥ 20 µM
- Kd [7, 33]: ≥ 20 µM
- Kd [8, 33]: ≥ 20 µM
- Kd [9, 33]: ≥ 20 µM
- Kd [10, 33]: ≥ 20 µM
- Kd [11, 33]: ≥ 20 µM
- Kd [12, 33]: ≥ 20 µM
- Kd [13, 33]: ≥ 20 µM
- Kd [14, 33]: ≥ 20 µM
- Kd [15, 33]: ≥ 20 µM
Sequence: ASDDLEHWQ

- Kd ([23]; source organism: Homo sapiens): ≥ 72.5 µM
- Kd ([20]; source organism: Homo sapiens): 15 µM
Sequence: DMKKKMEDSV

Sequence: HMMKDEPVV
- IC50 [16, 34]: 46.3 µM
- IC50 [24, 34]: 8.76 µM

Sequence: NVSIPWTHK
- Kd ([20]; source organism: Hepatitis B virus subtype adw2): ≥ 35 µM

Sequence: TTPFGQQRV
- Kd ([21]; source organism: Dengue virus 4 Philippines/H241/1956): 102 nM

Sequence: APIQDEERDI
- Kd [25]: ≥ 69.6 µM
- Kd ([26]; source organism: Dengue virus 3 Martinique/1243/1999): 5.06 µM

Sequence: AVSGGLNTSV
- Kd [20, 32]: ≥ 25 µM

Sequence: NPNMIDKTPV
- Kd ([26]; source organism: Dengue virus 4 Thailand/0348/1991): 0.402 µM

Sequence: GVLPLLLLYS
- Kd [18, 35]: 0.673 µM
- Kd [19, 35]: 1300 nM
- Kd [23, 35]: 0.0149 µM
- Kd [20, 35]: 2.37 µM
- Kd [21, 35]: 3560 nM

- Kd ([21]; source organism: Homo sapiens): ≥ 60000 nM
Sequence: QMKDCMREL

Sequence: LETDLRSEF
- IC50 [16, 31]: 47.5 µM

Sequence: SKNNIGIEY
- IC50 [16, 31]: ≥ 87.2 µM

Sequence: YMYAATNTH
- Kd [2, 30]: 0.04 µM
- Kd [5, 30]: ≥ 20 µM
- Kd [27]: ≥ 20 µM

Sequence: QQKNSQKGQ
- IC50 [16, 34]: ≥ 93.5 µM

Sequence: LLLWFNYLF
- Kd [28]: 0.00145 µM
- IC50 ([16]; source organism: Variola virus): ≥ 2970 µM
- IC50 ([24]; source organism: Variola virus): 0.125 µM

Sequence: RPAKNGTVMD
- Kd ([26]; source organism: Dengue virus 1 Brazil/97-11/1997): 0.317 µM

Sequence: QVMLLILCV
- Kd ([21]; source organism: Dengue virus 2 Jamaica/1409/1983): 1740 nM

Sequence: ISIKLTDSL
- IC50 [16, 36]: 5.59 µM
- IC50 [24, 36]: 7.32 µM
- IC50 [17, 36]: 3.66 µM

Sequence: SLAIDAYPL
- Kd ([2]; source organism: SARS-CoV1): 1.08 µM
- Kd ([7]; source organism: SARS-CoV1): 0.272 µM
- Kd ([9]; source organism: SARS-CoV1): 0.145 µM
- Kd ([11]; source organism: SARS-CoV1): ≥ 31.5 µM
- Kd ([12]; source organism: SARS-CoV1): 9.19 µM
- Kd ([13]; source organism: SARS-CoV1): ≥ 33.4 µM

Sequence: FGMFTTNIW
- Kd [29]: 0.0205 µM

Sequence: FLSHDFTLV
- Kd [18, 35]: 0.000142 µM
- Kd [19, 35]: 0.0619 nM
- Kd [23, 35]: 0.000765 µM
- Kd [21, 35]: 636 nM

Sequence: FVEGVSGGAW
- Kd [29]: 0.209 µM

Reference: the Immune Epitope Database (IEDB)
